Series [1] has as its system HeLa Kyoto. The series is described as follows: solubility change mitosis vs G1/S (difference of NP-40 vs SDS log2 ratios) (log2 ratio difference); higher = more soluble in mitosis.
In series [2] the test system is HeLa Kyoto. The series is described as follows: solubility in G1/S (NP-40 vs SDS abundance) (log2 ratio); higher = more soluble. Conditions: cell cycle stage: G1/S.

From the supplement of paper PMC5998384 come the findings set out here.
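Wherever solubility change mitosis vs G1/S (difference of NP-40 vs SDS log2 ratios) is given: synchronized HeLa Kyoto cells (double thymidine block for G1/S, nocodazole release for mitosis), protein amounts in NP-40 versus SDS lysates quantified by mass spectrometry, three biological replicates.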
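Wherever solubility in G1/S (NP-40 vs SDS abundance) is given: HeLa Kyoto cells arrested at G1/S by double thymidine block, proteins quantified by TMT10plex mass spectrometry in mild NP-40 versus SDS extracts, three biological replicates.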

Sequence of JAG2 (chain, as listed by the source): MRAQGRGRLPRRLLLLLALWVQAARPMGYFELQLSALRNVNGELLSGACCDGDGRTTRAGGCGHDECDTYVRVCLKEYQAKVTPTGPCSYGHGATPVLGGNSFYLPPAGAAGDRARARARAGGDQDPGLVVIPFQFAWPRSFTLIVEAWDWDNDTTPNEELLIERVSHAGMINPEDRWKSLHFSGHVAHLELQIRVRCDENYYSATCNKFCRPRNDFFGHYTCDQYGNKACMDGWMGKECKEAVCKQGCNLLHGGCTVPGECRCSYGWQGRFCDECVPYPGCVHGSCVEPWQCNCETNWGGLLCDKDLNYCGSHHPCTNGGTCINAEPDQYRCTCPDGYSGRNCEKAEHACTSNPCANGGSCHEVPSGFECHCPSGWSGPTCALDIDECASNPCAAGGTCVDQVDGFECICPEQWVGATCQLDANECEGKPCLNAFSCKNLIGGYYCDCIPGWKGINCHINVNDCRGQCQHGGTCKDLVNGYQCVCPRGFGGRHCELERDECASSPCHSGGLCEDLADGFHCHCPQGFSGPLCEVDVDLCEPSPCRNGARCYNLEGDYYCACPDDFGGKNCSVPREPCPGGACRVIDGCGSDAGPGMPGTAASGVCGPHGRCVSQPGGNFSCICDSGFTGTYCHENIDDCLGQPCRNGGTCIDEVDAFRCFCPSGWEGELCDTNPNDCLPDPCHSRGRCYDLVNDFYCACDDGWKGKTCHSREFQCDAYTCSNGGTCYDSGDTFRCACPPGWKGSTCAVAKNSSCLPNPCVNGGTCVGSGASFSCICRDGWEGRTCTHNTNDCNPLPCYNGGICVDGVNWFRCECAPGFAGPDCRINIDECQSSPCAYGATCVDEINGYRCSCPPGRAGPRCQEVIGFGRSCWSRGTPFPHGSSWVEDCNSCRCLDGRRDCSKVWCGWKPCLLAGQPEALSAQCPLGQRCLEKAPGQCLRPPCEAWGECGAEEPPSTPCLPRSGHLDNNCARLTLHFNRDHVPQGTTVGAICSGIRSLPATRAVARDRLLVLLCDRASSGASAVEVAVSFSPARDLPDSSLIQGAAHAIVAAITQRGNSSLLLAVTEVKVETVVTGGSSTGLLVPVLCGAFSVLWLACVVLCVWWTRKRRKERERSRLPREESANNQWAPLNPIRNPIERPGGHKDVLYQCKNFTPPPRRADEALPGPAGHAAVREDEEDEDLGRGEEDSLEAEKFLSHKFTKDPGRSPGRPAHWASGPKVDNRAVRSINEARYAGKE

With “MDEDEFELQPQEPNSFFDGIGADATHMDGDQIVVEIQEAVFVSNIVDSDITVHNFVPDDPDSVVIQDVVEDVVIEEDVQCSDILEEADVSENVIIPEQVLDSDVTEEVSLPHCTVPDDVLASDITSTSMSMPEHVLTSESMHVCDIGHVEHMVHDSVVEAEIITDPLTSDIVSEEVLVADCAPEAVIDASGISVDQQDNDKASCEDYLMISLDDAGKIEHDGSTGVTIDAESEMDPCKVDSTCPEVIKVYIFKADPGEDDLGGTVDIVESEPENDHGVELLDQNSSIRVPREKMVYMTVNDSQQEDEDLNVAEIADEVYMEVIVGEEDAAVAAAAAAVHEQQIDEDEMKTFVPIAWAAAYGNNSDGIENRNGTASALLHIDESAGLGRLAKQKPKKKRRPDSRQYQTAIIIGPDGHPLTVYPCMICGKKFKSRGFLKRHMKNHPEHLAKKKYHCTDCDYTTNKKISLHNHLESHKLTSKAEKAIECDECGKHFSHAGALFTHKMVHKEKGANKMHKCKFCEYETAEQGLLNRHLLAVHSKNFPHICVECGKGFRHPSELRKHMRIHTGEKPYQCQYCEYRSADSSNLKTHIKTKHSKEMPFKCDICLLTFSDTKEVQQHTLVHQESKTHQCLHCDHKSSNSSDLKRHVISVHTKDYPHKCEMCEKGFHRPSELKKHVAVHKGKKMHQCRHCDFKIADPFVLSRHILSVHTKDLPFRCKRCRKGFRQQNELKKHMKTHSGRKVYQCEYCEYSTTDASGFKRHVISIHTKDYPHRCEYCKKGFRRPSEKNQHIMRHHKEVGLP [ZFY]”, in the series with HeLa Kyoto [1], the “solubility change mitosis (log2)” value amounted to 0.257. The “solubility in G1/S (log2)” value with HeLa Kyoto [2] is -0.668.
“MAGRGSLVSWRAFHGCDSAEELPRVSPRFLRAWHPPPVSARMPTRRWAPGTQCITKCEHTRPKPGELAFRKGDVVTILEACENKSWYRVKHHTSGQEGLLAAGALREREALSADPKLSLMPWFHGKISGQEAVQQLQPPEDGLFLVRESARHPGDYVLCVSFGRDVIHYRVLHRDGHLTIDEAVFFCNLMDMVEHYSKDKGAICTKLVRPKRKHGTKSAEEELARAGWLLNLQHLTLGAQIGEGEFGAVLQGEYLGQKVAVKNIKCDVTAQAFLDETAVMTKMQHENLVRLLGVILHQGLYIVMEHVSKGNLVNFLRTRGRALVNTAQLLQFSLHVAEGMEYLESKKLVHRDLAARNILVSEDLVAKVSDFGLAKAERKGLDSSRLPVKWTAPEALKHGKFTSKSDVWSFGVLLWEVFSYGRAPYPKMSLKEVSEAVEKGYRMEPPEGCPGPVHVLMSSCWEAEPARRPPFRKLAEKLARELRSAGAPASVSGQDADGSTSPRSQEP [MATK]”: the “solubility change mitosis (log2)” value with HeLa Kyoto [1] is 0.257. In the series with HeLa Kyoto [2], the “solubility in G1/S (log2)” value was -0.238.
In the case of “MEASRCRLSPSGDSVFHEEMMKMRQAKLDYQRLLLEKRQRKKRLEPFMVQPNPEARLRRAKPRASDEQTPLVNCHTPHSNVILHGIDGPAAVLKPDEVHAPSVSSSVVEEDAENTVDTASKPGLQERLQKHDISESVNFDEETDGISQSACLERPNSASSQNSTDTGTSGSATAAQPADNLLGDIDDLEDFVYSPAPQGVTVRCRIIRDKRGMDRGLFPTYYMYLEKEENQKIFLLAARKRKKSKTANYLISIDPVDLSREGESYVGKLRSNLMGTKFTVYDRGICPMKGRGLVGAAHTRQELAAISYETNVLGFKGPRKMSVIIPGMTLNHKQIPYQPQNNHDSLLSRWQNRTMENLVELHNKAPVWNSDTQSYVLNFRGRVTQASVKNFQIVHKNDPDYIVMQFGRVADDVFTLDYNYPLCAVQAFGIGLSSFDSKLACE [TULP3]”, the “solubility change mitosis (log2)” value with HeLa Kyoto [1] was -0.00836. Moreover, the “solubility in G1/S (log2)” value in the series with HeLa Kyoto [2] was determined as 0.0464.
Consider “MPGLVDSNPAPPESQEKKPLKPCCACPETKKARDACIIEKGEEHCGHLIEAHKECMRALGFKI [COX17]”, for which the “solubility change mitosis (log2)” value in the series with HeLa Kyoto [1] came out at 0.425. In the series on HeLa Kyoto [2], the “solubility in G1/S (log2)” value is -0.216.
On to “MPALLERPKLSNAMARALHRHIMMERERKRQEEEEVDKMMEQKMKEEQERRKKKEMEERMSLEETKEQILKLEEKLLALQEEKHQLFLQLKKVLHEEEKRRRKEQSDLTTLTSAAYQQSLTVHTGTHLLSMQGSPGGHNRPGTLMAADRAKQMFGPQVLTTRHYVGSAAAFAGTPEHGQFQGSPGGAYGTAQPPPHYGPTQPAYSPSQQLRAPSAFPAVQYLSQPQPQPYAVHGHFQPTQTGFLQPGGALSLQKQMEHANQQTGFSDSSSLRPMHPQALHPAPGLLASPQLPVQMQPAGKSGFAATSQPGPRLPFIQHSQNPRFYHK [GPS2]”, for which the “solubility change mitosis (log2)” value with HeLa Kyoto [1] is -0.0529. Also, the “solubility in G1/S (log2)” value in the series with HeLa Kyoto [2] was determined as 0.416.
In the same order, the values of “MYRLMSAVTARAAAPGGLASSCGRRGVHQRAGLPPLGHGWVGGLGLGLGLALGVKLAGGLRGAAPAQSPAAPDPEASPLAEPPQEQSLAPWSPQTPAPPCSRCFARAIESSRDLLHRIKDEVGAPGIVVGVSVDGKEVWSEGLGYADVENRVPCKPETVMRIASISKSLTMVALAKLWEAGKLDLDIPVQHYVPEFPEKEYEGEKVSVTTRLLISHLSGIRHYEKDIKKVKEEKAYKALKMMKENVAFEQEKEGKSNEKNDFTKFKTEQENEAKCRNSKPGKKKNDFEQGELYLREKFENSIESLRLFKNDPLFFKPGSQFLYSTFGYTLLAAIVERASGCKYLDYMQKIFHDLDMLTTVQEENEPVIYNRARFYVYNKKKRLVNTPYVDNSYKWAGGGFLSTVGDLLKFGNAMLYGYQVGLFKNSNENLLPGYLKPETMVMMWTPVPNTEMSWDKEGKYAMAWGVVERKQTYGSCRKQRHYASHTGGAVGASSVLLVLPEELDTETINNKVPPRGIIVSIICNMQSVGLNSTALKIALEFDKDRSD [LACTB]” are 0.376 and -2.26.
As to “MKDVDNLKSIKEEWVCETGSDNQPLGNNQQSNCEYFVDSLFEEAQKVSSKCVSPAEQKKQVDVNIKLWKNGFTVNDDFRSYSDGASQQFLNSIKKGELPSELQGIFDKEEVDVKVEDKKNEICLSTKPVFQPFSGQGHRLGSATPKIVSKAKNIEVENKNNLSAVPLNNLEPITNIQIWLANGKRIVQKFNITHRVSHIKDFIEKYQGSQRSPPFSLATALPVLRLLDETLTLEEADLQNAVIIQRLQKTASFRELSEH [UBXN2A]”, in the series with HeLa Kyoto [1], the “solubility change mitosis (log2)” value stood at 0.0265. Further, the “solubility in G1/S (log2)” value in the series on HeLa Kyoto [2] came out at 0.0566.
With “MASSDLEQLCSHVNEKIGNIKKTLSLRNCGQEPTLKTVLNKIGDEIIVINELLNKLELEIQYQEQTNNSLKELCESLEEDYKDIEHLKENVPSHLPQVTVTQSCVKGSDLDPEEPIKVEEPEPVKKPPKEQRSIKEMPFITCDEFNGVPSYMKSRLTYNQINDVIKEINKAVISKYKILHQPKKSMNSVTRNLYHRFIDEETKDTKGRYFIVEADIKEFTTLKADKKFHVLLNILRHCRRLSEVRGGGLTRYVIT [SKA1]”, in the series on HeLa Kyoto [1], the “solubility change mitosis (log2)” value is -0.0548. Moreover, in the series on HeLa Kyoto [2], the “solubility in G1/S (log2)” value was 0.713.
As to “MLRWTRAWRLPREGLGPHGPSFARVPVAPSSSSGGRGGAEPRPLPLSYRLLDGEAALPAVVFLHGLFGSKTNFNSIAKILAQQTGRRVLTVDARNHGDSPHSPDMSYEIMSQDLQDLLPQLGLVPCVVVGHSMGGKTAMLLALQRPELVERLIAVDISPVESTGVSHFATYVAAMRAINIADELPRSRARKLADEQLSSVIQDMAVRQHLLTNLVEVDGRFVWRVNLDALTQHLDKILAFPQRQESYLGPTLFLLGGNSQFVHPSHHPEIMRLFPRAQMQTVPNAGHWIHADRPQDFIAAIRGFLV [ABHD11]”, the “solubility change mitosis (log2)” value in the series on HeLa Kyoto [1] worked out at 0.0439. Also, the “solubility in G1/S (log2)” value in the series with HeLa Kyoto [2] was found to be 0.492.
“MEKSWMLWNFVERWLIALASWSWALCRISLLPLIVTFHLYGGIILLLLIFISIAGILYKFQDVLLYFPEQPSSSRLYVPMPTGIPHENIFIRTKDGIRLNLILIRYTGDNSPYSPTIIYFHGNAGNIGHRLPNALLMLVNLKVNLLLVDYRGYGKSEGEASEEGLYLDSEAVLDYVMTRPDLDKTKIFLFGRSLGGAVAIHLASENSHRISAIMVENTFLSIPHMASTLFSFFPMRYLPLWCYKNKFLSYRKISQCRMPSLFISGLSDQLIPPVMMKQLYELSPSRTKRLAIFPDGTHNDTWQCQGYFTALEQFIKEVVKSHSPEEMAKTSSNVTII [ABHD13]”: the “solubility change mitosis (log2)” value with HeLa Kyoto [1] is -0.176. Moreover, the “solubility in G1/S (log2)” value with HeLa Kyoto [2] is -0.091.
With “MAELYVKPGNKERGWNDPPQFSYGLQTQAGGPRRSLLTKRVAAPQDGSPRVPASETSPGPPPMGPPPPSSKAPRSPPVGSGPASGVEPTSFPVESEAVMEDVLRPLEQALEDCRGHTRKQVCDDISRRLALLQEQWAGGKLSIPVKKRMALLVQELSSHRWDAADDIHRSLMVDHVTEVSQWMVGVKRLIAEKRSLFSEEAANEEKSAATAEKNHTIPGFQQAS [SRA1]”, the “solubility change mitosis (log2)” value in the series on HeLa Kyoto [1] turned out to be 0.9. In the series on HeLa Kyoto [2], the “solubility in G1/S (log2)” value is 0.0612.
Regarding “MCCEKWSRVAEMFLFIEEREDCKILCLCSRAFVEDRKLYNLGLKGYYIRDSGNNSGDQATEEEEGGYSCGTAESHDSKGIGLDESELDSEAELMRSMGLPLQFGRITAHKDFEVSMNTRNKVKIKKKKHQKKYLDEIVQESWRKEYEEDDILASDDPSSIEQYENTRTYELQSKKDTETENPPVENTLSPKLEITEKWEKYWNEYGGGLLWQSWQEKHPGQALSSEPWNFPDTKEEWEQHYSQLYWYYLEQFQYWEAQGWTFDASQSCDTDTYTSKTEADDKNDEKCMKVDLVSFPSSPIMVDNDSSGTSDKDHSEILDGISNIKLNSEEVTQSQLDSCTSHDGHQQLSEVSSKRECPASGQSEPRNGGTNEESNSSGNTNTDPPAEDSQKSSGANTSKDRPHASGTDGDESEEDPPEHKPSKLKRSHELDIDENPASDFDDSGSLLGFKYGSGQKYGGIPNFSHRQVRYLEKNVKLKSKYLDMRRQIKMKNKHIFFTKESEKPFFKKSKILSKVEKFLTWVNKPMDEEASQESSSHDNVHDASTSSDSEEQDMSVKKGDDLLETNNPEPEKCQSVSSAGELETENYERDSLLATVPDEQDCVTQEVPDSRQAETEAEVKKKKNKKKNKKVNGLPPEIAAVPELAKYWAQRYRLFSRFDDGIKLDREGWFSVTPEKIAEHIAGRVSQSFKCDVVVDAFCGVGGNTIQFALTGMRVIAIDIDPVKIALARNNAEVYGIADKIEFICGDFLLLASFLKADVVFLSPPWGGPDYATAETFDIRTMMSPDGFEIFRLSKKITNNIVYFLPRNADIDQVASLAGPGGQVEIEQNFLNNKLKTITAYFGDLIRRPASET [TGS1]”, in the series with HeLa Kyoto [1], the “solubility change mitosis (log2)” value is 0.247. In the series with HeLa Kyoto [2], the “solubility in G1/S (log2)” value was 0.102.
Take JAG2: the “solubility change mitosis (log2)” value in the series with HeLa Kyoto [1] came to 0.351. Moreover, the “solubility in G1/S (log2)” value in the series with HeLa Kyoto [2] was -0.54.
